Experiments:
[1] = biological target: T1, murine major histocompatibility complex class II molecule I-E^d (murine, UniProt P01904 26-216; P01915 32-225, limits assumed); test: competition with reference peptides on transfected fibroblasts, IL-2 secretion of T hybridoma 26.1
T1 construct: whole, on cells;extracellular; Expressed on transfected fibroblasts
T1 sequence (MHC II alpha, looked up): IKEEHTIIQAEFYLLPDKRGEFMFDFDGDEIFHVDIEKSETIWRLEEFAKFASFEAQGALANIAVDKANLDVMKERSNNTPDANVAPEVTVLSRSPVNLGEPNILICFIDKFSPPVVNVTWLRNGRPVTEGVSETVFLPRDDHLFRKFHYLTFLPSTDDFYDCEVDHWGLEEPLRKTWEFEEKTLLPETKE
T1 sequence (MHC II beta, looked up): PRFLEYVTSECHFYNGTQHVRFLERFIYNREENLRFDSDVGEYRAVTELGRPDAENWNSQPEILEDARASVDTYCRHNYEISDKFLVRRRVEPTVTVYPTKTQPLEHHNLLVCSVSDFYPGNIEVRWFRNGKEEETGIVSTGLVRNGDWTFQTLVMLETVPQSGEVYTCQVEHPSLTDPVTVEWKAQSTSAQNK

[2] = biological target: T2, murine major histocompatibility complex class II molecule I-A^d (murine, UniProt P04228 24-218; P01921 28-226, limits assumed); test: competition with reference peptides on transfected fibroblasts, IL-2 secretion of T hybridoma 26.2
T2 construct: whole, on cells;extracellular; Expressed on transfected fibroblasts
T2 sequence (MHC II alpha, looked up): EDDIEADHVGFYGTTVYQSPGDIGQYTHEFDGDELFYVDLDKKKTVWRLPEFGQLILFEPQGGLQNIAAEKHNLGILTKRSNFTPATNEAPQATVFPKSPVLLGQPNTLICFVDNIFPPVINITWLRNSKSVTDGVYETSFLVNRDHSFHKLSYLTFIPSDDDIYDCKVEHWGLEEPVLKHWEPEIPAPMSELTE
T2 sequence (MHC II beta, looked up): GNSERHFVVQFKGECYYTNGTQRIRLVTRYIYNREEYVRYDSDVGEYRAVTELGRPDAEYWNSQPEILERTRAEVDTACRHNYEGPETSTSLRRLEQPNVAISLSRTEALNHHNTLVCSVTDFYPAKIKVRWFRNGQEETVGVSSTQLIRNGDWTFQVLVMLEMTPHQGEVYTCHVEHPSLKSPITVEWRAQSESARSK

[3] = biological target: T3, murine major histocompatibility complex class II molecule I-A^k (murine, UniProt P01910 24-218; P06343 28-224, limits assumed); test: competition with reference peptides on transfected fibroblasts, IL-2 secretion of T hybridoma E7E9
T3 construct: whole, on cells;extracellular; Expressed on transfected fibroblasts

Measured: binding result

B1: 131-151 peptide of the U1-70K protein (RIHMVYSKRSGKPRGYAFIEY) (peptide)
peptide: RIHMVYSKRSGKPRGYAFIEY
notes: Synthetic peptide; also called parent peptide; non-phosphorylated peptide
binds: all assays above

— US20140004136A1 (CENTRE NATIONAL DE LA RECHERCHE SCIENTIFIQUE, published 2014)
